Laboratory results from article doi:10.1101/669069.
Where “and” joins values, the source holds several entries; their conditions need not be identical. Equal entries are not always repeated.

How the values were obtained:
[1] = stopped-flow tryptophan fluorescence, urea-induced dissociation kinetics; settings: other: stopped-flow tryptophan fluorescence
[2] = target: Methionine S-adenosyltransferase (MAT) from U. urealiticum (U. urealiticum); test: native MS
[3] = target: Methionine S-adenosyltransferase (MAT) from U. urealiticum (U. urealiticum); test: crystal structure
[4] = target: Methionine S-adenosyltransferase (MAT) from U. urealiticum (U. urealiticum); test: crystal structure; remark: listed apart in the source
[5] = target: Methionine S-adenosyltransferase (MAT) from U. urealiticum (U. urealiticum); test: SEC-MALS
[6] = target: Methionine S-adenosyltransferase (MAT) from U. urealiticum (U. urealiticum); test: SEC-MALS; remark: listed apart in the source

In the case of “Methionine S-adenosyltransferase (MAT) from U. urealiticum”, the “kobs of urea-induced tetramer dissociation (3 M urea, with SAM)” value [1] is reported as “kobs ∼ 0.1sec^-1”.

In the case of “Methionine S-adenosyltransferase (MAT) from U. urealiticum (enzyme)”, the stoichiometry N [2] is reported as 4 and 2, the stoichiometry N [3] is reported as 4 and the stoichiometry N [4] is reported as 4. For the same substance, the stoichiometry N [5] was 4 and 2 and the stoichiometry N [6] was 4.
